B1: IlvECg: Enzyme candidate for BDO biosynthetic pathway step A4, SEQ ID NO. 28 (protein, listed as Corynebacterium glutamicum)
chain: MYLSGSRCTLKSMTSLEFTVTRTENPTSPDRLKEILAAPKFGKFFTDHMVTIDWNESEGWHNAQLVPYAPIPMDPATTVFHYGQAIFEGIKAYRHSDETIKTFRPDENAERMQRSAARMAMPQLPTEDFIKALELLVDADQDWVPEYGGEASLYLRPFMISTEIGLGVSPADAYKFLVIASPVGAYFTGGIKPVSVWLSEDYVRAAPGGTGDAKFAGNYAASLLAQSQAAEKGCDQVVWLDAIEHKYIEEMGGMNLGFIYRNGDQVKLVTPELSGSLLPGITRKSLLQVARDLGYEVEERKITTTEWEEDAKSGAMTEAFACGTAAVITPVGTVKSAHGTFEVNNNEVGEITMKLRETLTGIQQGNVEDQNGWLYPLVG
B2: BcaTLp: Enzyme candidate for BDO biosynthetic pathway step A4, SEQ ID NO. 34 (protein, listed as Lactobacillus plantarum)
chain: MADVQLDWNNLGFEYRNLPYRYRAYWKDGAWYKKELTGDATLHISEGSTALHYGQQDFEGLKAYRTKDGSVQLFRPDRNAARMQTSCERLLMPQVPTDMFVDAVKQVVKANQDYVPPYGTGATLYLRPLMIGVGGNIGVHPAQEYIFTVFAMPVGSYFKGGMTPTNFTTSEYDRAAHKGTGAYKVGGNYAASLFPGQEAHANGFSDCVYLDPVEHRKIEEVGSANFFGITKDGTFVTPKSPSILPAVTKYSLLYLAEHKFGMKTEQGDVYIDDLDRFAEAGACGTAAVISPIGGLEHQGKLHVFYSETEVGPVTKKLYDELTGIQFGDREAPEGWVQKVELD
B3: BioACg: Enzyme candidate for BDO biosynthetic pathway step A4, SEQ ID NO. 29 (protein, listed as Corynebacterium glutamicum)
chain: MENPSLRELDHRNIWHPYAAPGVRNRLVTKTDGVFLTLEDGSTVIDAMSSWWSAIHGHGHPRLKAAAQKQIDTMSHVMFGGLTHEPAIKLTHKLLNLTGNSFDHVFYSDSGSVSVEVAIKMALQASKGQGHPERTKLLTWRSGYHGDTFTAMSVCDPENGMHSLWKGTLPEQIFAPAPPVRGSSPQAISEYLRSMELLIDETVSAIIIEPIVQGAGGMRFHDVALIEGVATLCKKHDRFLIVDEIATGFGRTGELFATLSNGLQPDIMCVGKALTGGFMSFAATLCTDKVAQLISTPNGGGALMHGPTFMANPLACAVSHASLEIIETGMWQKQVKRIEAELIAGLSPLQHLPGVADVRVLGAIGVIEMEQNVNVEEATQAALDHGVWIRPFGRLLYVMPPYITTSEQCAQICTALHAAVKGK
B4: BATlY1: Enzyme candidate for BDO biosynthetic pathway step A4, SEQ ID NO. 31 (protein, listed as Yarrowia lipolytica)
chain: MLRNNLRSLSRAFSTSSMRLGAGMDASKLQITKTKSPKEKQAPKDLIFGHTFTDHMLTVEWTAKDGWAAPQITPYGPLELDPSAVVLHYAFECFEGLKAYKDESGNVRLFRVDKNMHRMNTSAERICLPEFDGAEAAKLIGQLAKLDSAWIPEGRGYSMYLRPSLIGTTAALGVGTPDKALFYVIASPVGPYYPTGFKAVKLEATDYAVRAWPGGVGNKKLGANYAPCIKPQQQAASRGYQQNLWLFGDEGNITEVGTMNAFFVFERNGKKELVTAPLDGTILEGVTRDSILELARERLPSADWIVSERYCTIKEVAEAAEKGELVEAFGAGTAAVVSPIKEIGWGEKTINIPLQPGKEAGKLTETVNEWIGDIQYGKDEYKGWSKVV

The molecules below were run on 5-hydroxy-L-norvaline (assay: Enzyme assay, aminotransferase (step A4), cell lysates). Conditions: BDO biosynthetic pathway step A4.
Assay type: biochemical
Parameters: key: +: measureable activity detected in the assay; −: no measurable activity detected in the assay
Description: Enzyme expression and crude lysate preparation. The enzymatic activity of each candidate enzyme is evaluated, first in E. coli and subsequently in C. glutamicum. It will be apparent to one of skill in the art that the expression and lysate preparations may need to be modified depending on the host cell and recombinant gene of interest.
E. coli: E. coli strains transformed with expression clones, for example, pUC18 or MB4124 based clones having a medium strong constitutive promoter regulating the recombinant gene of interest, are grown aerobically in LB medium (Difco) containing the appropriate antibiotic(s). At an OD600 of 0.5, IPTG is added to a final concentration of 0.25 mM. The cultures are grown to a final OD600 of 1.5 at which time the cells are collected and harvested by centrifugation. Cell pellets are resuspended in BugBuster (Novagen) reagent containing benzonase and lysozyme. Alternatively, E. coli strains transformed with expression clones, are grown overnight aerobically at 37° C. in BHI containing the appropriate antibiotic(s). 300 μL of fresh overnight culture is used to inoculate 2.7 mL BHI containing 0.25 mM IPTG and the appropriate antibiotic. The cultures are grown aerobically for 4-5 hours at 37° C. at which time the cells are collected and harvested by centrifugation. Cell pellets are frozen at −80° C. for at least 15 minutes, then thawed and resuspended in BugBuster (Novagen) reagent. Lysis and lysate collection are performed according to the manufacturer's instructions and, for example, may involve use of a sonicator and/or French press. Cleared lysates are stored on ice until enzyme assays are performed.
C. glutamicum: C. glutamicum strains transformed with MB4124 expression clones containing the recombinant gene of interest are grown aerobically in BHI broth supplemented with the proper antibiotic(s). At an OD600 of 0.5, IPTG is added to a final concentration of 0.25 mM. The cultures are grown to a final OD600 of 1.5 at which time the cells are collected and harvested by centrifugation. The pellet is washed once in one volume of water and resuspended in lysis buffer (1.0 ml 1.0 M HEPES buffer, pH 7.5, 0.5 ml 1M KOH, 10 μl 0.5M EDTA, protease inhibitor cocktail, water to 5 ml; the final pH will vary depending on the individual enzyme being tested) and one volume of 0.1 mm acid washed glass beads. The mixture is repeatedly alternately vortexed and held on ice for 15 seconds, eight times. After centrifugation for 5 min at 4,000 rpm, the supernatant lysate is removed and respun for 20 min at 10,000 rpm. Alternatively, C. glutamicum strains transformed with MB4124 expression clones containing the recombinant gene of interest are grown aerobically overnight in BHI broth supplemented with the proper antibiotic(s). Five mL of fresh overnight culture is used to inoculate 200 mL BHI containing 0.25 mM IPTG and the appropriate antibiotic. The cultures are grown aerobically at 30° C. for 5-7 hours at which time the cells are collected and harvested by centrifugation at 4° C. The pellet is resuspended in 15 mL ice cold 39 mM KH2PO4, 61 mM K2HPO4, 0.5 M KCl and lysed using a BioSpec BeadBeater and following the manufacturer's instructions. […]
Protein Assays. Protein concentrations in lysates are determined according to the methods of Bradford et al. (Anal. Biochem. 72:248-254 [1976]) or by the method of Smith et al. (Anal. Biochem. 150(1):76-85 [1985]) and lysates are assayed according to the methods below. […]

Molecule	Enzyme Assay
B1	−
B2	−
B3	−
B4	−

Reference: patent US20110014669A1, “Production of 1,4 Butanediol in a Microorganism” (Microbia, Inc., priority 2009, published 2011)
